US20130022590, “Compositions Comprising Zinc Finger Domains and Uses Therefor” (published 2013)
Changes are numbered by the printed parent chain.

Columns and labels:
ZRANB2-F12 delta47-61 = ZRANB2-F12 delta47-61 (Homo sapiens, UniProt O95218 O95218:1-46+62-95, del47-61); experiment: FP; about 30-51e6 stated; order comparable to wild-type F12; settings: label: 5'-fluorescein
Experimental: (§1) Fluorescence Anisotropy titrations e.g., as shown in FIGS. 1D-F, 8 and 35, were carried out using standard protocols. In brief, 5′-Fluorescein-labeled RNA oligonucleotides were quantified by A₂₆₀, correcting for fluorescein absorbance by using A₄₉₃. For single-site experiments, the sequence […] (SEQ ID NO: 28), or single base mutants thereof, was used. For double-site experiments, two AGGUAA sites were separated by different length sequences as indicated, and the total oligonucleotide lengths were kept constant by the symmetrical addition of adenines to each end. […] Protein was titrated into this starting solution and anisotropy values measured on a Cary Eclipse fluorescence spectrophotometer fitted with manual polarizer and long-pass filters set to 475 and 515 nm for excitation and emission, respectively. […] Association constants were determined by nonlinear least squares regression analysis using a 1:1 binding model.
(§2) The inventors have employed deletion mutagenesis to thereby identify a minimal inter-finger linker region of ZRANB2 required for specific ssRNA-binding. […] The deletion constructs were then tested for an ability to bind the ssRNA substrate 5′-GGUNXGGU-3′ comprising a repeat of the GGU core sequence using fluorescence anisotropy titration.

ZRANB2-F12 delta45-64 [1] = target: T1, ZRANB2-F12 delta45-64 (Homo sapiens, UniProt O95218 O95218:1-44+65-95, del45-64); experiment: FP; lower affinity than F122; settings: label: 5'-fluorescein
Experimental: Fluorescence Anisotropy titrations e.g., as shown in FIGS. 1D-F, 8 and 35, were carried out using standard protocols. In brief, 5′-Fluorescein-labeled RNA oligonucleotides were quantified by A₂₆₀, correcting for fluorescein absorbance by using A₄₉₃. For single-site experiments, the sequence […] (SEQ ID NO: 28), or single base mutants thereof, was used. For double-site experiments, two AGGUAA sites were separated by different length sequences as indicated, and the total oligonucleotide lengths were kept constant by the symmetrical addition of adenines to each end. The anisotropy titrations were performed with a starting RNA concentration of 50 nM in a buffer comprising either 10 mM Tris (pH 8.0), 50 mM KCl, 5 mM MgCl₂, 0.05 mg/mL heparin, and 1 mM DTT (for GST fusion constructs) or 10 mM Mops (pH 7.3), 50 mM NaCl, 0.05 mg/mL heparin, and 1 mM DTT (for ZRANB2-F12). RNasin (Promega) was also added to the protein solution to a concentration of 2 units/μL. Protein was titrated into this starting solution and anisotropy values measured on a Cary Eclipse fluorescence spectrophotometer fitted with manual polarizer and long-pass filters set to 475 and 515 nm for excitation and emission, respectively. […] Association constants were determined by nonlinear least squares regression analysis using a 1:1 binding model. […]

ZRANB2-F12 [2] = target: T2, ZRANB2-F12 (Homo sapiens, UniProt O95218 O95218:1-95); experiment: FP; range stated for deletion construct and comparable wild type; settings: tags: GST removed for FA, gel shift and SPR; label: 5'-fluorescein
Experimental: as §1, §2

ZRANB2-F12 delta45-64 [3] = target: T1, ZRANB2-F12 delta45-64; experiment: FP; settings: label: 5'-fluorescein
[4] = target: EWS RanBP2-type zinc finger (Homo sapiens, UniProt Q01844 Q01844:518-549); experiment: FP; value in figure only; settings: tags: expressed as GST fusion
Experimental: Fluorescence Anisotropy titrations e.g., as shown in FIGS. 1D-F, 8 and 35, were carried out using standard protocols. In brief, 5′-Fluorescein-labeled RNA oligonucleotides were quantified by A₂₆₀, correcting for fluorescein absorbance by using A₄₉₃. For single-site experiments, the sequence […] (SEQ ID NO: 28), or single base mutants thereof, was used. For double-site experiments, two AGGUAA sites were separated by different length sequences as indicated, and the total oligonucleotide lengths were kept constant by the symmetrical addition of adenines to each end. The anisotropy titrations were performed with a starting RNA concentration of 50 nM in a buffer comprising either 10 mM Tris (pH 8.0), 50 mM KCl, 5 mM MgCl₂, 0.05 mg/mL heparin, and 1 mM DTT (for GST fusion constructs) or 10 mM Mops (pH 7.3), 50 mM NaCl, 0.05 mg/mL heparin, and 1 mM DTT (for ZRANB2-F12). RNasin (Promega) was also added to the protein solution to a concentration of 2 units/μL. Protein was titrated into this starting solution and anisotropy values measured on a Cary Eclipse fluorescence spectrophotometer fitted with manual polarizer and long-pass filters set to 475 and 515 nm for excitation and emission, respectively. […] Association constants were determined by nonlinear least squares regression analysis using a 1:1 binding model.

ZRANB2-F2 (untagged) = target: T3, ZRANB2-F2 (untagged) (Homo sapiens, UniProt O95218 O95218:65-95); experiment: structure; crystal structure 1.4 A; W79 stacks between G2 and G3
T3 chain: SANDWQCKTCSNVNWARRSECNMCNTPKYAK

ZRANB2-F12 [5] = target: T2, ZRANB2-F12; experiment: FP; affinity increases with spacing; value in figure only; settings: tags: GST removed for FA, gel shift and SPR; label: 5'-fluorescein
Experimental: as §1
The importance of the spacing between AGGUAA motifs was assessed by measuring binding of F12 to double sites that were separated by −1 to 8 nt (where −1 denotes the sequence […] SEQ ID NO: 33; FIG. 1E, lanes 5-10).

ZRANB2-F2 R82N = target: T4, ZRANB2-F2 R82N (Homo sapiens, UniProt O95218 O95218:65-95, R82N); experiment: FP; also about 2-fold increase versus WT F2; settings: label: 5'-fluorescein
T4 chain: T3 chain with R18N
Experimental: The anisotropy titrations were performed with a starting RNA concentration of 50 nM in a buffer comprising either 10 mM Tris (pH 8.0), 50 mM KCl, 5 mM MgCl₂, 0.05 mg/mL heparin, and 1 mM DTT (for GST fusion constructs) or 10 mM Mops (pH 7.3), 50 mM NaCl, 0.05 mg/mL heparin, and 1 mM DTT (for ZRANB2-F12). RNasin (Promega) was also added to the protein solution to a concentration of 2 units/μL. Protein was titrated into this starting solution and anisotropy values measured on a Cary Eclipse fluorescence spectrophotometer fitted with manual polarizer and long-pass filters set to 475 and 515 nm for excitation and emission, respectively. Excitation and emission wavelengths were set at 495 and 520 nm, respectively (10-nm slits) and the temperature was maintained at 25° C. by using a block temperature controller. Association constants were determined by nonlinear least squares regression analysis using a 1:1 binding model. […]

EKLF-F123 = EKLF-F123 (UniProt P46099 P46099:275-357); experiment: FP; higher affinity than poly(C) or AGGUAA; also HSQC titration; settings: tags: zinc fingers 1-3
Chain of EKLF-F123 (P46099 275-357, one chain of several): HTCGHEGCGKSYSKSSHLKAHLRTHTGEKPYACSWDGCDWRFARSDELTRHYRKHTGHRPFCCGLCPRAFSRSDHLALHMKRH

Chain of EWS RanBP2-type zinc finger (Q01844 518-549, one chain of several): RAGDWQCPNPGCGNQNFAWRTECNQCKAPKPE

Question: Does AAAGGUGGUAAAA (ssRNA) [GGUGGU 13-mer] bind (ZRANB2-F12 delta47-61)?
Answer: Result: binds

Question: Does AAAGGUGGUAAAA (ssRNA) [GGUGGU 13-mer] bind (ZRANB2-F12 delta45-64 [1])?
Answer: Result: binds

Question: Does AAAGGUGGUAAAA (ssRNA) [GGUGGU 13-mer] bind (ZRANB2-F12 [2])?
Answer: Result: binds

Question: For AAGGUGGUGGUAA (ssRNA) [GGUGGUGGU 13-mer], which Ka (ZRANB2-F12 delta45-64 [3]) is on record?
Answer: The Ka was roughly 2.5e+07 M⁻¹.

Question: Which results are given for AGGUAA (ssRNA) [AGGUAA hexamer]?
Answer: binding result [4]: binds; binding result (ZRANB2-F2 (untagged)): binds

Question: Does AGGUAAGGUAA (ssRNA) [double site spacing -1] bind (ZRANB2-F12 [5])?
Answer: Result: binds

Question: For AGUUAA (ssRNA) [AGUUAA (3U)], which binding signal (ZRANB2-F2 R82N) is on record?
Answer: The binding signal was roughly 2 fold higher than AGGUAA.

Question: Does UUUUUUUUU (ssRNA) [U9] bind (EKLF-F123)?
Answer: Result: binds
